The values that follow come from patent US20250381254A1, “Augmented Acid Alpha-Glucosidase For The Treatment Of Pompe Disease” (Amicus Therapeutics, Inc., priority 2015, published 2025).

In one series the test system is cynomolgus monkeys. Put plainly: 13-week toxicity study in cynomolgus monkeys. Conditions: once every other week for 13 weeks. The procedure:
Animals were acclimated to the study room for 18 (females) to 19 (males) days. On the final day of acclimation, animals weighed between 2.243 kg and 5.413 kg and were 2 to 3 years of age.
ATB200 is formulated in 25 mM sodium phosphate buffer, pH 6 containing 2.92 mg/mL sodium chloride, 20 mg/mL mannitol, and 0.5 mg/mL polysorbate 80 (formulation buffer). Test article (ATB200 or miglustat) and control article/vehicle (formulation buffer) were administered once every other week for 13 weeks, starting on Day 1 and ending on Day 85. ATB200 and the control article/vehicle were administered by 2 hour (±10 minute) intravenous (IV) infusion at 0 mg/kg (Group 1, control article), 50 mg/kg (Group 2), or 100 mg/kg (Groups 3 and 5). Miglustat was administered nasogastrically in sterile water for injection, USP, at 25 mg/kg (Group 2) or 175 mg/kg (Groups 3 and 4), 30 minutes (±2 minutes) prior to the start of the infusion for ATB200, when given in combination. The dosing volume across all groups was 10 mL/kg.
Parameters assessed during the in-life phase of the study included body weights, food consumption, clinical observations, detailed clinical observations, physical examinations, electrocardiography, ophthalmic assessments, clinical pathology (hematology, coagulation, serum chemistry), anti-drug antibody (ADA) assessment, neutralizing ADA assessment, urinalysis, and plasma toxicokinetics (TK) for miglustat and ATB200 activity and total protein. Terminal necropsy of animals was performed on Day 99 (14 days after the last dose administration). At necropsy, gross observations and organ weights were recorded, and tissues were collected for microscopic examination.

For series [1] the following is noted: in vivo.
Method: Pharmacokinetic data for acid α-glucosidase (ATB200), including sampling times, dosing history and plasma concentrations of acid α-glucosidase, is obtained from mice, rats and monkeys administered ATB200 by intravenous injection. […] Modeling and simulations are performed using Phoenix® NLME™ v1.3. Compartmental PK models are constructed to assess the PK of ATB200 in plasma. The models include: • Description of the relationships between plasma concentration and time; • A variance component characterizing between- and within-animal variability in model parameters; and • A component describing uncertainty in the state of knowledge about critical model components.
PK is assumed to be species independent and is scaled according to a generalized Dedrick approach that scales the disposition according to the power of an animal's body weight:
where CL=systemic clearance, V=volume of distribution, BW=body weight, p=peripheral, b and d=allometric exponents, and a and c=typical values for a BW=1. […] Nominal BW (0.025, 0.25 and 2.5 kg) are used in the analyses.
The model includes a theoretical allometric component accounting for difference in body weight across animal species on clearance (CL) and volume of distribution (Vc).
The subject of series [2] is normal and Pompe fibroblast cell lines. Put plainly: Cellular uptake of rhGAA in fibroblasts. Conditions: for concentration that saturates cellular receptors: 16-hr incubation. The series is classed as cell-based. The procedure:
The relative cellular uptake of ATB200 and Lumizyme® rhGAA were compared using normal and Pompe fibroblast cell lines. Comparisons involved 5-100 nM of ATB200 rhGAA according to the invention with 10-500 nM conventional rhGAA Lumizyme®. After 16-hr incubation, external rhGAA was inactivated with TRIS base and cells were washed 3-times with PBS prior to harvest. Internalized GAA measured by 4MU-α-Glucoside hydrolysis and was graphed relative to total cellular protein and the results appear in FIGS. 10A-B.

The conditions of series [3]: cynomolgus monkey, in vivo.
Method: Total anti-drug antibody (ADA) and neutralizing antibody (NAb) levels are measured in plasma. Blood samples (approximately 1.6 mL) were collected in K2EDTA tubes from all animals once during acclimation, predose (prior to administration of miglustat) and on Days 1, 85 and 99. Samples were maintained on wet ice until processed. Plasma was obtained by centrifugation at 2° C. to 8° C. and aliquots (approximately 0.2 mL) were transferred to polypropylene vials, and stored frozen at −60° C. to −86° C. within one hour from blood collection. Analysis of samples for ADA was conducted on samples collected from animals in Groups 1, 2, 3, and 5 (miglustat only samples were not analyzed). Analysis for neutralizing antibodies was conducted using an enzyme assay with the fluorogenic substrate 4-methylumbelliferyl-α-D-glucopyranoside (4MU-Glc).
For series [4] the following is noted: human, in vivo.
Method: This is an open-label, fixed-sequence, ascending-dose, first-in-human study to evaluate the safety, tolerability, and pharmacokinetics (PK) of intravenous (IV) recombinant acid α-glucosidase (ATB200, lyophilized powder reconstituted with sterile water for injection and diluted with 0.9% sodium chloride for injection) alone and when co-administered with oral miglustat (hard gelatin capsules, 65 mg). The study will be conducted in 2 stages. In Stage 1, safety, tolerability, and PK will be evaluated following sequential single ascending doses of ATB200, administered every 2 weeks as an approximately 4 hour intravenous infusion, for 3 dosing periods at 5, 10, and 20 mg/kg. In Stage 2, safety, tolerability, and PK will be evaluated following single- and multiple-ascending dose combinations: 20 mg/kg ATB200 co-administered every 2 weeks with 130 mg miglustat (two 65 mg capsules), taken orally 1 hour prior to an approximately 4 hour intravenous infusion of ATB200, for 3 doses followed by 20 mg/kg ATB200 co-administered with 260 mg miglustat (four 65 mg capsules), taken orally 1 hour prior to an approximately 4 hour intravenous infusion of ATB200, for 3 doses.
Series [5] has as its system Gaa knockout mice. Put plainly: Exposure-response: glycogen levels in Gaa knockout mice.
Method: Gaa knockout mice are administered acid α-glucosidase (ATB200) intravenously at doses of 5, 10 and 20 mg/kg, rising oral doses of miglustat (1, 3 and 10 mg/kg) concomitantly with intravenous doses of 5 or 10 mg/kg of ATB200 or rising oral doses of miglustat (1, 3, 5, 10, 20, and 30 mg/kg) concomitantly with intravenous doses of 20 mg/kg of ATB200.
For series [6] the following is noted: in vivo. This is another data set of the same source.
In series [7] the test system is Gaa knockout mice. Description: Glycogen clearance, ATB200 vs Lumizyme, two IV bolus administrations. To be noted: ATB200 10 and 20 mg/kg; skeletal muscles. In kind it is in vivo, mouse. The text has this:
Animals are given two IV bolus administrations (every other week); tissues are harvested two weeks after the last dose and analyzed for acid α-glucosidase activity and glycogen content.

The subject of series [8] is Pompe fibroblasts and skeletal muscle myoblasts. Description: Internalization by Pompe fibroblasts and skeletal muscle myoblasts. The series is classed as cell-based.
The target of series [9] is T1, CIMPR (Homo sapiens, UniProt P11717). Description: CIMPR plate binding assay. The procedure:
Briefly, CIMPR-coated plates were used to capture GAA. Varying concentrations of rhGAA were applied to the immobilized receptor and unbound rhGAA was washed off. The amount of remaining rhGAA was determined by GAA activity.

For series [10] the following is noted: cynomolgus monkey, in vivo. This is another data set of the same source.
Method: ATB200 toxicokinetics were measured in blood samples collected in K2EDTA tubes from animals on Days 1 and 85 at the following time points: • For Groups 1, 2, 3, and 5: Predose (prior to administration of miglustat); 1 hour from initiation of infusion; 2 hours from initiation of infusion; 2.5 hours from initiation of infusion; 3 hours from initiation of infusion; 4 hours from initiation of infusion; 6 hours from initiation of infusion; 12 hours from initiation of infusion; 26 hours from initiation of infusion; 168 hours from initiation of infusion; and 336 hours from initiation of infusion (collected prior to dosing on Day 15); and • For Group 4: Predose (prior to administration of miglustat); 1.5 hour post administration of miglustat; 2.5 hours post administration of miglustat; 3.5 hours post administration of miglustat; 4.5 hours post administration of miglustat; 6.5 hours post administration of miglustat; 12.5 hours post administration of miglustat; 26.5 hours post administration of miglustat; 168.5 hours post administration of miglustat; and 336.5 hours post administration of miglustat (collected prior to dosing on Day 15). […]
Total ATB200 protein was measured by liquid chromatography coupled to tandem mass spectrometry (LC-MS/MS). […]
Series [11] relates to Gaa knockout mice. Description: Muscle physiology and morphology in Gaa-knockout mice. In kind it is in vivo, mouse. Conditions: 20 mg/kg rhGAA IV every other week, miglustat 10 mg/kg oral where co-administered.
For series [12] the following is noted: in vivo, iv, 100 mg/kg.
Series [13] is described as follows: Clinical study: ALT, AST and CPK biomarkers. In kind it is in vivo, human. The procedure: Alanine aminotransferase (ALT), aspartate aminotransferase (AST) and creatine phosphokinase (CPK) levels were monitored in human patients that switched from Lumizyme® to ATB200. The patients received ascending doses of ATB200 (5, 10 and 20 mg/kg) followed by co-administration of ATB200 (20 mg/kg) and miglustat (130 and 260 mg). High levels of CPK enzyme may indicate injury or stress to muscle tissue, heart, or brain. Elevated ALT and AST are markers of liver and muscle damage from Pompe disease, respectively.

The conditions of series [14]: human, in vivo. From the text: The study will be conducted in 2 stages.
This stage will include: • Safety: review of AEs, including serious adverse events (SAEs) and IARs; review of concomitant medications and nondrug therapies; vital signs (HR, RR, BP, and temperature); brief PE; ECG; clinical safety laboratory assessments (serum chemistry, hematology, and urinalysis); and urine pregnancy test • PD: urinary Hex4 and serum CPK • Immunological: blood samples for anti-recombinant acid α-glucosidase antibody titers (anti-recombinant acid α-glucosidase total and neutralizing antibody titers and antibody cross-reactivity with alglucosidase alfa) and blood samples for measurement of pro-inflammatory cytokines and other biomarkers of immune system activation. If needed, IgE measurements will also be performed. • Serial 24-hour pharmacokinetics (PK): During Period 1 (Visit 3, Day 1), Period 2 (Visit 4, Day 15), and Period 3 (Visit 5, Day 29), blood sampling for plasma acid α-glucosidase activity levels and total acid α-glucosidase protein concentrations will be taken for all subjects.
• Safety: review of AEs, including SAEs and IARs; review of concomitant medications and nondrug therapies; vital signs (HR, RR, BP, and temperature); weight; PE; ECG; clinical safety laboratory assessments (serum chemistry, hematology, and urinalysis); and urine pregnancy test • PD: urinary Hex4 and serum CPK • Immunological: blood samples for anti-recombinant acid α-glucosidase antibody titers (anti-recombinant acid α-glucosidase total and neutralizing antibody titers, and antibody cross-reactivity with alglucosidase alfa) and blood samples for measurement of pro-inflammatory cytokines and other biomarkers of immune system activation. If needed, IgE measurements will also be performed. • Serial 24-hour PK: During Period 4 (Visit 6, Day 43 and Visit 8, Day 71) and Period 5 (Visit 9, Day 85 and Visit 11, Day 113), blood sampling for plasma acid α-glucosidase activity levels, total acid α-glucosidase protein concentrations, and miglustat concentrations will be taken for all subjects. […]
The source holds these as a separate data set.

In series [15] the target is T1, CIMPR. Put plainly: CIMPR affinity chromatography of rhGAA. In kind it is binding. To be noted: fraction of total enzyme by GAA activity. The procedure:
To evaluate the ability of the rhGAA in Myozyme® and Lumizyme®, the only currently approved treatments for Pompe disease, these rhGAA preparations were injected onto a CIMPR column (which binds rhGAA having M6P groups) and subsequently eluted with a free […] gradient. Fractions were collected in 96-well plate and GAA activity assayed by 4MU—α-glucose substrate. The relative amounts of bound and unbound rhGAA were determined based on GAA activity and reported as the fraction of total enzyme.

A further series concerns Gaa KO mice. Description: Muscle function in Gaa KO mice, 12 biweekly administrations. In kind it is in vivo, mouse. Conditions: 20 mg/kg ERT, 10 mg/kg miglustat, FIGS. 33A-33B. From the text:
In FIG. 33A, * indicates statistically significant compared to Lumizyme® alone (p<0.05, 2-sided t-test). In FIGS. 34A-34G, * indicates statistically significant compared to Lumizyme® alone (p<0.05, multiple comparison using Dunnett's method under one-way ANOVA analysis).

The conditions of series [16]: cited from earlier work.
[17] abbreviates: one patient, switched from Lumizyme®, ATB200 5, 10, 20 mg/kg then 20 mg/kg + miglustat 130 and 260 mg.

Where two headings read alike, the source gives them in different places.

T1 sequence (P11717 41-2491, species assumed): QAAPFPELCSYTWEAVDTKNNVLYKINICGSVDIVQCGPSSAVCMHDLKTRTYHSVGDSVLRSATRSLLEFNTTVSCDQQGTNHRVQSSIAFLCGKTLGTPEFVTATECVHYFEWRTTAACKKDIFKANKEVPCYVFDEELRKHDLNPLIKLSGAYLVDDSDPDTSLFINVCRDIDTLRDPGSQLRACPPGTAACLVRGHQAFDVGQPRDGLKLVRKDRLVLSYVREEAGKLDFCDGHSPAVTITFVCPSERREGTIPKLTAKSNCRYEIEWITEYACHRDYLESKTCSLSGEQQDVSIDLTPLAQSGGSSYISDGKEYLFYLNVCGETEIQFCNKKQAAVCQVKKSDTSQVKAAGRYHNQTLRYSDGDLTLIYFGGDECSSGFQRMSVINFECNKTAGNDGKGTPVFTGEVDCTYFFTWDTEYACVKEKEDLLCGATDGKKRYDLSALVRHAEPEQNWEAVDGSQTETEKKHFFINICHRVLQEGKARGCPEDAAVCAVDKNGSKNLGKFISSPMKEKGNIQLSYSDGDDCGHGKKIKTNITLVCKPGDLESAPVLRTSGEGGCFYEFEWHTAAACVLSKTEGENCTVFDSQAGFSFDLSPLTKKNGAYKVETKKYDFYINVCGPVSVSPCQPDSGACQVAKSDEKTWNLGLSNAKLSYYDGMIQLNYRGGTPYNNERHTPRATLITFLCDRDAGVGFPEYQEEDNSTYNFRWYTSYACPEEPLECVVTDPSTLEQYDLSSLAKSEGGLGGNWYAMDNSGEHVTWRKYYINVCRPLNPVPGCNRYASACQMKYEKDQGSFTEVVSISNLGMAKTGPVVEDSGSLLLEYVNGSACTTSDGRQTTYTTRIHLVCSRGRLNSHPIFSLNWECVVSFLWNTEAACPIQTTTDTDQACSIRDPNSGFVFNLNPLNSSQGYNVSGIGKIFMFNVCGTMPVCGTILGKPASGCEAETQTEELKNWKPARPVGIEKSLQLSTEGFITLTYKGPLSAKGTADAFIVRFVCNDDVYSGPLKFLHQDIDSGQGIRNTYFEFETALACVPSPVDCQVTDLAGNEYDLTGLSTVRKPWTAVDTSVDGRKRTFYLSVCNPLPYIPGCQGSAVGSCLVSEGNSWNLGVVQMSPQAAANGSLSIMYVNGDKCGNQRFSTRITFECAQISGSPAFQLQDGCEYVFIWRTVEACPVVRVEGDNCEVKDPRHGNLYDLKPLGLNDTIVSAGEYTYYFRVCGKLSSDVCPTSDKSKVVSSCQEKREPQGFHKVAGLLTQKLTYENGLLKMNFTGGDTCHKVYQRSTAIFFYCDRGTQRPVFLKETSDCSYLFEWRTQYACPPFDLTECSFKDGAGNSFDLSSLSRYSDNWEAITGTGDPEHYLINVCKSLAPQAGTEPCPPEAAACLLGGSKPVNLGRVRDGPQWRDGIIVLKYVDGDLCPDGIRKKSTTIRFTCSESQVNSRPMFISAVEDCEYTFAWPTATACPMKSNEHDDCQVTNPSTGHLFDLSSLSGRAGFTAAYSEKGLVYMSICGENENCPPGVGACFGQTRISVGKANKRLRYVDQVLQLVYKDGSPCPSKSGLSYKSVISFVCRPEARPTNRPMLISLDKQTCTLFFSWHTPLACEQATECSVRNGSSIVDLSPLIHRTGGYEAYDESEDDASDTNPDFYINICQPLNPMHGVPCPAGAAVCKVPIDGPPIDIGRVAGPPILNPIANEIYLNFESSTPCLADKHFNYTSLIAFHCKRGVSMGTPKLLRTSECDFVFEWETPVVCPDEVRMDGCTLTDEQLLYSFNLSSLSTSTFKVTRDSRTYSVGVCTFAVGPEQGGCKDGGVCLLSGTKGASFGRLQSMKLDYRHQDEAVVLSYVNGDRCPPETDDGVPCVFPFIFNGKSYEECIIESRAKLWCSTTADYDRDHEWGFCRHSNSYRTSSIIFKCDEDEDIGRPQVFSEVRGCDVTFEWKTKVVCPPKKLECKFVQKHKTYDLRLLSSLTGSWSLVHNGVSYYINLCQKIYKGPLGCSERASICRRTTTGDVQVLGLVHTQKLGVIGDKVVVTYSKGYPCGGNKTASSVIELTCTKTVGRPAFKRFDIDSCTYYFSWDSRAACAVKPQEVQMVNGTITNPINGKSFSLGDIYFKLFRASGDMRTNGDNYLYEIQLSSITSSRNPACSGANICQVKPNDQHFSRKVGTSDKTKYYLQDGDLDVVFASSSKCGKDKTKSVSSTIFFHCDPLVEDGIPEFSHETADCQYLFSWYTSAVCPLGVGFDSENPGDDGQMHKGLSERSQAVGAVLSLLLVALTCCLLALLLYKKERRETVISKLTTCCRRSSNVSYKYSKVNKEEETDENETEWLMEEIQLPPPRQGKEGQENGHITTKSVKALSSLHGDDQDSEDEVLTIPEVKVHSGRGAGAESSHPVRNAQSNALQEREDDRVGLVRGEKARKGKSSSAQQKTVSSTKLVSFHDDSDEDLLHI

As for ATB200, the “test article-related changes (survival, clinical observations, body weight, ECG, clinical pathology, organ weights, histopathology)” value in the series with cynomolgus monkeys is given as “no changes attributable”. For the same substance, the “No-Observed-Adverse-Effect-Level (NOAEL)” value in the series with cynomolgus monkeys (2 hour infusion, with or without miglustat, highest dosage tested) was 100 mg/kg/infusion. In series [1], the “Central volume of distribution (Vc)” value is 0.0101 × (BW/0.25)^0.83 L, the “Peripheral clearance (CLd)” value was 0.00029 × (BW/0.25)^0.78 L/h, the “Peripheral volume of distribution (V2)” value is 0.000653 × (BW/0.25)^0.83 L and the “Systemic clearance (CL)” value is given as 0.00957 × (BW/0.25)^0.78 L/h. Besides, the “concentration that saturates cellular receptors” value in [2] was “about 20 nM”. In addition, the “internalization into normal and Pompe fibroblast cells” value in series [2] (vs Lumizyme®) is “internalized to a greater degree than conventional Lumizyme® rhGAA”. The “anti-drug antibody (ADA) incidence” value in series [3] was 100%. For the same substance, in series [4], the adverse events entry is “generally mild and transient”; the infusion-associated reactions entry is “no infusion-associated reactions”; the serious adverse events entry was “no serious adverse events (SAEs)”. In the series on Gaa knockout mice [5] (5, 10 and 20 mg/kg IV), the tissue glycogen depletion result is reported as “deplete tissue glycogen in acid α-glucosidase (Gaa) knockout mice in a dose-dependent fashion”. The “Glycogen, median” value with Gaa knockout mice [5] (ATB200 5 mg/kg monotherapy, Study #1) is 307 μg/mg protein. Besides, the “Glycogen, median” value in the series with Gaa knockout mice [5] (ATB200 5 mg/kg monotherapy, overall median) stood at 307 μg/mg protein. The “Glycogen, median” value in the series on Gaa knockout mice [5] (ATB200 10 mg/kg monotherapy, Study #1) is reported as 259 μg/mg protein. The “Glycogen, median” value in the series with Gaa knockout mice [5] (ATB200 10 mg/kg monotherapy, overall median) is reported as 259 μg/mg protein. Also, in the series with Gaa knockout mice [5] (ATB200 20 mg/kg monotherapy, Study #1), the “Glycogen, median” value amounted to 157 μg/mg protein. Also, the “Glycogen, median” value in the series with Gaa knockout mice [5] (ATB200 20 mg/kg monotherapy, Study #3) was determined as 195 μg/mg protein. Besides, the “Glycogen, median” value in the series with Gaa knockout mice [5] (ATB200 20 mg/kg monotherapy, overall median) is recorded as 181 μg/mg protein. For the same substance, the “apparent plasma half-life t1/2” value in series [6] is reported as about 45 m. For the same substance, the “glycogen reduction vs Lumizyme® 20 mg/kg” value in the series on Gaa knockout mice [7] is “significantly better reduction of glycogen levels in skeletal muscles than Lumizyme®”. For the same substance, the “Kupdate (internalization)” value in series [8] lay within 7 to 14 nM. Also, in the series with CIMPR [9] (FIG. 9A), the “CIMPR binding compared with Lumizyme®” value is recorded as “bound to CIMPR significantly better than Lumizyme®”. In the series with CIMPR [9] (M6P receptor plate binding assays), the equilibrium dissociation constant (Kd) was 2 to 4 nM. Besides, in series [10], the “mean terminal half-life (t1/2β)” value was in the range of 1.70 to 11.1 h and the “time to maximal ATB200 plasma concentration (tmax)” value is “approximately 2 hours”. Besides, the “lysosome proliferation (LAMP1)” value in the series on Gaa knockout mice [11] (FIG. 20) is “reduction in lysosome proliferation in heart, diaphragm and skeletal muscle (soleus) tissue compared to conventional treatment with alglucosidase alfa”. In addition, the “punctate glycogen levels (PAS)” value with Gaa knockout mice [11] (FIG. 21) is “reduction in punctate glycogen levels in heart and skeletal muscle (soleus) tissue compared to conventional treatment with alglucosidase alfa”. The AUC in [12] came to 5330 µg·h/mL. In series [13] (another patient, same regimen), the “reduction in ALT” value worked out at 11%, the “reduction in AST” value amounted to 22% and the “reduction in CPK” value is 31%. In series [13] (setting [17]), the “reduction in ALT” value came out at 34%, the “reduction in AST” value amounted to 28% and the “reduction in CPK” value is given as 44%. In [14], the Volume of distribution lay within 3.5 to 5.7 L and the “dose proportionality of exposures” value is listed as “slightly greater than dose proportional exposures”. For the same substance, the “tmax (median)” value in [14] (20 mg/kg) came to 4.0 h.
For the substance “Lumizyme®: conventional rhGAA product (alglucosidase alfa), Genzyme”, in the series with CIMPR [15], the “rhGAA activity eluted prior to addition of M6P (did not bind to the CIMPR)” value is listed as 78% and the “rhGAA eluted with M6P / containing M6P (CIMPR binding)” value is 22%. In addition, the “concentration that saturates cellular receptors” value in series [2] is listed as “about 250 nM”. Also, the “uptake efficiency constant (Kuptake)” value in series [2] (extrapolated, FIG. 10C) is on record as 56 nM. Moreover, the “functional muscle strength (grip strength and wire hang tests)” value with Gaa KO mice is “observed to decline”. For the same substance, the AUC in series [16] (20 mg/kg dose, reported) is about 2700 µg·h/mL. Further, the systemic clearance in series [16] (Week 52, repeated dosing, late-stage Pompe disease, product label) is recorded as 601 mL/h. Also, in series [16] (product label), the half-life is listed as 2.4 h.
